# Experimental data as given in PMC8668987 (The Journal of Biological Chemistry, 2021).
# What was measured:
# [1] = target: endogenous SRC-2 of mouse E14 ES cells (mouse (endogenous in E14 ES cells), UniProt Q61026 1-1462); test: co-IP
# [2] = target: endogenous SRC-3 of mouse E14 ES cells (mouse (endogenous in E14 ES cells), UniProt O09000 1-1398); test: co-IP
# endogenous SRC-3 of mouse E14 ES cells, sequence (O09000 whole entry): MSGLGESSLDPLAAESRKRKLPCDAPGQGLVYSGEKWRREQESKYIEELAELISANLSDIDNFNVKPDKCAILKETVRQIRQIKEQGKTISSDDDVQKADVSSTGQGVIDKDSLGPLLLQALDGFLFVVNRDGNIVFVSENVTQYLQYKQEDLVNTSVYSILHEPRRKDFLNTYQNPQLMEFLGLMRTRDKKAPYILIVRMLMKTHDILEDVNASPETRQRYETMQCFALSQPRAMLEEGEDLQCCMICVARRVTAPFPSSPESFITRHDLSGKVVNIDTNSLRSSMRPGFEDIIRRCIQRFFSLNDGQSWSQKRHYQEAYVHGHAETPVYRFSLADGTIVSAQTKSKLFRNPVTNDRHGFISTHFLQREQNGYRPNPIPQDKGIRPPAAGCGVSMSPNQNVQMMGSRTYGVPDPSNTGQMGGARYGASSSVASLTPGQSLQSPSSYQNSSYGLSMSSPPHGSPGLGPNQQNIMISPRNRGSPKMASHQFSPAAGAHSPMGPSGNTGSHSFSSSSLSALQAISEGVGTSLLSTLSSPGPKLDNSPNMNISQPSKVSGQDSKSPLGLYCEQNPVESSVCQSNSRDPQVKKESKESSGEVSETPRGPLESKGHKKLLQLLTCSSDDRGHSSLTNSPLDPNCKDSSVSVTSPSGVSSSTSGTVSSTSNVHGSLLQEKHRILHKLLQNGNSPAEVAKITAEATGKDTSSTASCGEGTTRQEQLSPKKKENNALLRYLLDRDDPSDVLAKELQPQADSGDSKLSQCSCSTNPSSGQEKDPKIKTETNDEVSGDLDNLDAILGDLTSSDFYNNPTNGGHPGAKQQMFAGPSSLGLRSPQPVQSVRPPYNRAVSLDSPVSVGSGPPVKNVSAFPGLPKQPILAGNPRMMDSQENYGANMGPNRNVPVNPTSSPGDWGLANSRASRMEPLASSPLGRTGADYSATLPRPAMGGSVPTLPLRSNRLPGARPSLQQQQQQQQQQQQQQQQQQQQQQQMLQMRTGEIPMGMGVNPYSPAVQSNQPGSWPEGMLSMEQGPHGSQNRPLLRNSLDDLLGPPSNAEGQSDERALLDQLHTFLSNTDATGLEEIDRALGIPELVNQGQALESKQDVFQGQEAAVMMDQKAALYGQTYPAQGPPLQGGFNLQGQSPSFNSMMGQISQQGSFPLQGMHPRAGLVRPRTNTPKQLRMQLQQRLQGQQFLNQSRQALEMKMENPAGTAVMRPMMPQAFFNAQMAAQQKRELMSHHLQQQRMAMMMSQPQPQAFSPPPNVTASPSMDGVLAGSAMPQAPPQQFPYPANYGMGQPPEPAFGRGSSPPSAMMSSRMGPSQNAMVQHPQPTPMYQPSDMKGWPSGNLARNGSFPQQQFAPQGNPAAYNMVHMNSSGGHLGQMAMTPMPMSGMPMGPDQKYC
# endogenous SRC-2 of mouse E14 ES cells, sequence (Q61026 whole entry): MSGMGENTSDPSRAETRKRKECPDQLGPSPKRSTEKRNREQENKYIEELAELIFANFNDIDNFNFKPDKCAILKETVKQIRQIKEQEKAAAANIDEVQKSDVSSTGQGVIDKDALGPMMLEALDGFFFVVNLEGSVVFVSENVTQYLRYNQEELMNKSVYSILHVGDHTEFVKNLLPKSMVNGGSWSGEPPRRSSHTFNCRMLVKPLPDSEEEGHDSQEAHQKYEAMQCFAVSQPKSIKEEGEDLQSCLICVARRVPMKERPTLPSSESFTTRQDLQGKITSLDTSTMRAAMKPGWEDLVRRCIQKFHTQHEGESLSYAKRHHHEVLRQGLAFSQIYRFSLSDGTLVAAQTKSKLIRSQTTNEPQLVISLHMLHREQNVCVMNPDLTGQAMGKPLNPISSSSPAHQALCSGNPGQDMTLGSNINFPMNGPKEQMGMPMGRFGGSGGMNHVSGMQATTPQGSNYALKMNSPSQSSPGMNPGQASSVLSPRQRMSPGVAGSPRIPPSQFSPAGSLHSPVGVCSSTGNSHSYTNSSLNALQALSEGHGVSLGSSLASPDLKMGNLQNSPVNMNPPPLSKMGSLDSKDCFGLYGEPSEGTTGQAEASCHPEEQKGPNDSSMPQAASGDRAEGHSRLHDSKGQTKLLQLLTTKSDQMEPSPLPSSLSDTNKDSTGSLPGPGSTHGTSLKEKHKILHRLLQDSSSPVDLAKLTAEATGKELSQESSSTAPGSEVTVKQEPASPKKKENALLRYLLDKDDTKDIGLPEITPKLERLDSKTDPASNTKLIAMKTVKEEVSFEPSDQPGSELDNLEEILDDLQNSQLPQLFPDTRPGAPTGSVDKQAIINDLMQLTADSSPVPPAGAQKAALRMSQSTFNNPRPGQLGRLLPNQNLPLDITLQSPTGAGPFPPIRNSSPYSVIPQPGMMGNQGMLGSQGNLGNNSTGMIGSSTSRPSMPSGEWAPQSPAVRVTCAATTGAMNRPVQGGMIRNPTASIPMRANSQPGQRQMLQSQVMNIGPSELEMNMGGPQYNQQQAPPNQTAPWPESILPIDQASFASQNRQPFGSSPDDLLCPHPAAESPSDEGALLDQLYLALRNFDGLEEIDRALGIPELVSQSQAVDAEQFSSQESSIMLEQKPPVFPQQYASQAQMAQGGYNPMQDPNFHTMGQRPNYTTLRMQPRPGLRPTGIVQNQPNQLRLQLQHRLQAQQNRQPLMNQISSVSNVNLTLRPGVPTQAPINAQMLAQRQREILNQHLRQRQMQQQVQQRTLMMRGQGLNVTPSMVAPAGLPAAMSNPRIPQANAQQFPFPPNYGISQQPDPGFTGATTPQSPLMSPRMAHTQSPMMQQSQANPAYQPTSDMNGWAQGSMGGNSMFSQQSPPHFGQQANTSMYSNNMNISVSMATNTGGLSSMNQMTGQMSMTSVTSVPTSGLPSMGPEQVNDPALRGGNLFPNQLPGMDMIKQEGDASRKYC
binder,measurement,setting,value
endogenous Sox2 of mouse E14 ES cells (natural protein) not shown,"fold change of co-precipitated Sox2, TSA plus NAM against untreated cells",[1],4.08 fold
same,"fold change of co-precipitated Sox2, TSA plus NAM against untreated cells",[2],7.53 fold
